Laboratory results published in US20200024330A1.

How the values were obtained:
Assay in all cases: cell-based or functional assay
[1] = molecular target: HIV-1 Env of isolate 92TH021 (HIV-1)
[2] = molecular target: HIV-1 Env of isolate JRCSF (HIV-1) (UniProt P20871)
[3] = molecular target: HIV-1 Env of isolate MGRM-C-026 (HIV-1)
[4] = molecular target: HIV-1 Env of isolate 93IN905 (HIV-1)
[5] = molecular target: HIV-1 Env of isolate 93MW959 (HIV-1)
[6] = molecular target: HIV-1 Env of isolate 97ZA012 (HIV-1)
[7] = molecular target: HIV-1 Env of isolate 98IN022 (HIV-1)
[8] = molecular target: HIV-1 Env of isolate MGRM-Chronic-B-010 (HIV-1)
[9] = molecular target: HIV-1 Env of isolate MGRM-Chronic-B-011 (HIV-1)
[10] = molecular target: HIV-1 Env of isolate MGRM-Chronic-B-012 (HIV-1)
[11] = molecular target: HIV-1 Env of isolate MGRM-Chronic-B-017 (HIV-1)
[12] = molecular target: HIV-1 Env of isolate MGRM-Chronic-B-018 (HIV-1)
[13] = molecular target: HIV-1 Env of isolate MGRM-Chronic-B-020 (HIV-1)
[14] = molecular target: HIV-1 Env of isolate MGRM-Chronic-B-023 (HIV-1)
[15] = molecular target: HIV-1 Env of isolate MGRM-Chronic-B-024 (HIV-1)
[16] = molecular target: HIV-1 Env of isolate MGRM-D-011 (HIV-1)
[17] = molecular target: HIV-1 Env of isolate MGRM-D-012 (HIV-1)
[18] = molecular target: HIV-1 Env of isolate MGRM-D-013 (HIV-1)
[19] = molecular target: HIV-1 Env of isolate MGRM-D-014 (HIV-1)
[20] = molecular target: HIV-1 Env of isolate MGRM-D-016 (HIV-1)
[21] = molecular target: HIV-1 Env of isolate MGRM-D-018 (HIV-1)
[22] = molecular target: HIV-1 Env of isolate MGRM-D-019 (HIV-1)
[23] = molecular target: HIV-1 Env of isolate MGRM-D-020 (HIV-1)
[24] = molecular target: HIV-1 Env of isolate MGRM-D-021 (HIV-1)
[25] = molecular target: HIV-1 Env of isolate MGRM-D-022 (HIV-1)
[26] = molecular target: HIV-1 Env of isolate MGRM-D-024 (HIV-1)
[27] = molecular target: HIV-1 Env of isolate MGRM-D-026 (HIV-1)
[28] = molecular target: HIV-1 Env of isolate MGRM-D-028 (HIV-1)
[29] = molecular target: HIV-1 Env of isolate MGRM-D-029 (HIV-1)
[30] = molecular target: HIV-1 Env of isolate MGRM-F1-004 (HIV-1)
[31] = molecular target: HIV-1 Env of isolate MGRM-F1-006 (HIV-1)
[32] = molecular target: HIV-1 Env of isolate MGRM-F1-008 (HIV-1)
[33] = molecular target: HIV-1 Env of isolate MGRM-F1-010 (HIV-1)
[34] = molecular target: HIV-1 Env of isolate MGRM-F1-012 (HIV-1)
[35] = molecular target: HIV-1 Env of isolate MGRM-F1-013 (HIV-1)
[36] = molecular target: HIV-1 Env of isolate MGRM-F1-014 (HIV-1)
[37] = molecular target: HIV-1 Env of isolate MGRM-F1-015 (HIV-1)
[38] = molecular target: HIV-1 Env of isolate MGRM-F1-016 (HIV-1)
[39] = molecular target: HIV-1 Env of isolate MGRM-F1-017 (HIV-1)
[40] = molecular target: HIV-1 Env of isolate MGRM-F1-018 (HIV-1)
[41] = molecular target: HIV-1 Env of isolate MGRM-F1-020 (HIV-1)
[42] = molecular target: HIV-1 Env of isolate MGRM-F1-021 (HIV-1)
[43] = molecular target: HIV-1 Env of isolate MGRM-F1-022 (HIV-1)
[44] = molecular target: HIV-1 Env of isolate MGRM-F1-023 (HIV-1)
[45] = molecular target: HIV-1 Env of isolate NL43 (HIV-1)
[46] = molecular target: HIV-1 Env of isolate PVO.4 (HIV-1)
[47] = molecular target: HIV-1 Env of isolate QH0692.42 (HIV-1)
[48] = molecular target: HIV-1 Env of isolate SC422661.8 (HIV-1)
[49] = molecular target: HIV-1 Env of isolate SF162 (HIV-1) (UniProt P19550)
[50] = molecular target: HIV-1 Env of isolate THR0.18 (HIV-1)
[51] = molecular target: HIV-1 Env of isolate TRJ04551.58 (HIV-1)
[52] = molecular target: HIV-1 Env of isolate TRO.11 (HIV-1)
[53] = molecular target: HIV-1 Env of isolate VLGCB3 (HIV-1)

Sequence of PGT-145 (antibody) (VH): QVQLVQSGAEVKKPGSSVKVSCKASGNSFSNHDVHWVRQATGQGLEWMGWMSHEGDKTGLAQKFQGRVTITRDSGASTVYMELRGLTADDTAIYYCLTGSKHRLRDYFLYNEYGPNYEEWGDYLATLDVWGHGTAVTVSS
Sequence of PGT-145 (antibody) (VL): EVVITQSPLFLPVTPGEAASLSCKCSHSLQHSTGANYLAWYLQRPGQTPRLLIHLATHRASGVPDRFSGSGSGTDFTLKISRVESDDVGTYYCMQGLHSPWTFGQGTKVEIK

Question: For “PGT-132 (B cell culture well 5113_D22) (antibody)”, which Primary Neutralization Index (B cell culture well 5113 D22) [1] is on record?
Answer: Its Primary Neutralization Index (B cell culture well 5113 D22) is 51.

Question: And the Primary Neutralization Index (B cell culture well 5113 D22) [2]?
Answer: The Primary Neutralization Index (B cell culture well 5113 D22) was 3.

Question: And the Primary Neutralization Index (B cell culture well 5113 D22) [3]?
Answer: Its Primary Neutralization Index (B cell culture well 5113 D22) is 6.

Question: Which Primary Neutralization Index (B cell culture well 5117 E22) [1] does the source give for “PGT-133 (B cell culture well 5117_E22) (antibody)” here?
Answer: Its Primary Neutralization Index (B cell culture well 5117 E22) is 42.5.

Question: And the Primary Neutralization Index (B cell culture well 5117 E22) [2]?
Answer: Its Primary Neutralization Index (B cell culture well 5117 E22) is 3.6.

Question: What about the Primary Neutralization Index (B cell culture well 5117 E22) [3] of the same substance?
Answer: The Primary Neutralization Index (B cell culture well 5117 E22) was 3.4.

Question: With PGT-145 (antibody) as the substance, how does the neutralization IC50 [4] read?
Answer: The neutralization IC50 was 0.002 µg/mL.

Question: What about the neutralization IC50 [5] of the same substance?
Answer: The neutralization IC50 was 1.2 µg/mL.

Question: And the neutralization IC50 [6]?
Answer: Its neutralization IC50 is 0.915 µg/mL.

Question: And the neutralization IC50 [7]?
Answer: Its neutralization IC50 is 0.005 µg/mL.

Question: And the neutralization IC50 [2]?
Answer: The neutralization IC50 was 0.002 µg/mL.

Question: And the neutralization IC50 [8]?
Answer: Its neutralization IC50 is > 50 µg/mL.

Question: What about the neutralization IC50 [9] of the same substance?
Answer: Its neutralization IC50 is 0.206 µg/mL.

Question: What about the neutralization IC50 [10] of the same substance?
Answer: Its neutralization IC50 is 9.66 µg/mL.

Question: What about the neutralization IC50 [11] of the same substance?
Answer: Its neutralization IC50 is 0.054 µg/mL.

Question: And the neutralization IC50 [12]?
Answer: Its neutralization IC50 is 0.013 µg/mL.

Question: What about the neutralization IC50 [13] of the same substance?
Answer: Its neutralization IC50 is > 50 µg/mL.

Question: What about the neutralization IC50 [14] of the same substance?
Answer: Its neutralization IC50 is 0.009 µg/mL.

Question: And the neutralization IC50 [15]?
Answer: The neutralization IC50 was 0.018 µg/mL.

Question: And the IC50, pseudovirus neutralization [16]?
Answer: Its IC50, pseudovirus neutralization is 14.7 µg/mL.

Question: What about the IC50, pseudovirus neutralization [17] of the same substance?
Answer: Its IC50, pseudovirus neutralization is > 50 µg/mL.

Question: And the IC50, pseudovirus neutralization [18]?
Answer: Its IC50, pseudovirus neutralization is 3.48 µg/mL.

Question: What about the IC50, pseudovirus neutralization [19] of the same substance?
Answer: The IC50, pseudovirus neutralization was 2.51 µg/mL.

Question: And the IC50, pseudovirus neutralization [20]?
Answer: Its IC50, pseudovirus neutralization is > 50 µg/mL.

Question: What about the IC50, pseudovirus neutralization [21] of the same substance?
Answer: The IC50, pseudovirus neutralization was 0.065 µg/mL.

Question: What about the IC50, pseudovirus neutralization [22] of the same substance?
Answer: The IC50, pseudovirus neutralization was 0.111 µg/mL.

Question: What about the IC50, pseudovirus neutralization [23] of the same substance?
Answer: Its IC50, pseudovirus neutralization is 10 µg/mL.

Question: What about the IC50, pseudovirus neutralization [24] of the same substance?
Answer: The IC50, pseudovirus neutralization was > 50 µg/mL.

Question: And the IC50, pseudovirus neutralization [25]?
Answer: Its IC50, pseudovirus neutralization is 34.3 µg/mL.

Question: What about the IC50, pseudovirus neutralization [26] of the same substance?
Answer: Its IC50, pseudovirus neutralization is 0.224 µg/mL.

Question: What about the IC50, pseudovirus neutralization [27] of the same substance?
Answer: The IC50, pseudovirus neutralization was 0.41 µg/mL.

Question: And the IC50, pseudovirus neutralization [28]?
Answer: Its IC50, pseudovirus neutralization is 0.721 µg/mL.

Question: And the IC50, pseudovirus neutralization [29]?
Answer: Its IC50, pseudovirus neutralization is 0.03 µg/mL.

Question: And the IC50, pseudovirus neutralization [30]?
Answer: The IC50, pseudovirus neutralization was 0.361 µg/mL.

Question: What about the IC50, pseudovirus neutralization [31] of the same substance?
Answer: The IC50, pseudovirus neutralization was 13.6 µg/mL.

Question: What about the IC50, pseudovirus neutralization [32] of the same substance?
Answer: The IC50, pseudovirus neutralization was 0.228 µg/mL.

Question: What about the IC50, pseudovirus neutralization [33] of the same substance?
Answer: The IC50, pseudovirus neutralization was 3.32 µg/mL.

Question: And the IC50, pseudovirus neutralization [34]?
Answer: Its IC50, pseudovirus neutralization is 0.113 µg/mL.

Question: What about the IC50, pseudovirus neutralization [35] of the same substance?
Answer: The IC50, pseudovirus neutralization was 0.402 µg/mL.

Question: And the IC50, pseudovirus neutralization [36]?
Answer: The IC50, pseudovirus neutralization was 0.009 µg/mL.

Question: What about the IC50, pseudovirus neutralization [37] of the same substance?
Answer: Its IC50, pseudovirus neutralization is 1.76 µg/mL.

Question: What about the IC50, pseudovirus neutralization [38] of the same substance?
Answer: Its IC50, pseudovirus neutralization is 17.5 µg/mL.

Question: What about the IC50, pseudovirus neutralization [39] of the same substance?
Answer: The IC50, pseudovirus neutralization was 0.286 µg/mL.

Question: What about the IC50, pseudovirus neutralization [40] of the same substance?
Answer: Its IC50, pseudovirus neutralization is 1.02 µg/mL.

Question: What about the IC50, pseudovirus neutralization [41] of the same substance?
Answer: Its IC50, pseudovirus neutralization is 0.816 µg/mL.

Question: What about the IC50, pseudovirus neutralization [42] of the same substance?
Answer: The IC50, pseudovirus neutralization was 8.04 µg/mL.

Question: And the IC50, pseudovirus neutralization [43]?
Answer: Its IC50, pseudovirus neutralization is 0.009 µg/mL.

Question: What about the IC50, pseudovirus neutralization [44] of the same substance?
Answer: Its IC50, pseudovirus neutralization is 5.88 µg/mL.

Question: What about the neutralization IC50 [45] of the same substance?
Answer: The neutralization IC50 was 0.006 µg/mL.

Question: And the neutralization IC50 [46]?
Answer: The neutralization IC50 was 0.299 µg/mL.

Question: And the neutralization IC50 [47]?
Answer: The neutralization IC50 was > 50 µg/mL.

Question: And the neutralization IC50 [48]?
Answer: Its neutralization IC50 is 0.079 µg/mL.

Question: What about the neutralization IC50 [49] of the same substance?
Answer: The neutralization IC50 was > 50 µg/mL.

Question: What about the neutralization IC50 [50] of the same substance?
Answer: Its neutralization IC50 is 0.013 µg/mL.

Question: What about the neutralization IC50 [51] of the same substance?
Answer: Its neutralization IC50 is > 50 µg/mL.

Question: What about the neutralization IC50 [52] of the same substance?
Answer: The neutralization IC50 was 0.044 µg/mL.

Question: What about the neutralization IC50 [53] of the same substance?
Answer: The neutralization IC50 was > 50 µg/mL.
